Source: patent US20240368239A1, “Novel bispecific protein and use thereof” (SL METAGEN, priority 2020, published 2024)

What was measured:
GLP-1 receptor = assay: cell-based or functional assay
[1] = target: human GLP-2 receptor (human) (UniProt O95838); assay: cell-based or functional assay
Sequence of human GLP-2 receptor (human) (O95838 whole entry): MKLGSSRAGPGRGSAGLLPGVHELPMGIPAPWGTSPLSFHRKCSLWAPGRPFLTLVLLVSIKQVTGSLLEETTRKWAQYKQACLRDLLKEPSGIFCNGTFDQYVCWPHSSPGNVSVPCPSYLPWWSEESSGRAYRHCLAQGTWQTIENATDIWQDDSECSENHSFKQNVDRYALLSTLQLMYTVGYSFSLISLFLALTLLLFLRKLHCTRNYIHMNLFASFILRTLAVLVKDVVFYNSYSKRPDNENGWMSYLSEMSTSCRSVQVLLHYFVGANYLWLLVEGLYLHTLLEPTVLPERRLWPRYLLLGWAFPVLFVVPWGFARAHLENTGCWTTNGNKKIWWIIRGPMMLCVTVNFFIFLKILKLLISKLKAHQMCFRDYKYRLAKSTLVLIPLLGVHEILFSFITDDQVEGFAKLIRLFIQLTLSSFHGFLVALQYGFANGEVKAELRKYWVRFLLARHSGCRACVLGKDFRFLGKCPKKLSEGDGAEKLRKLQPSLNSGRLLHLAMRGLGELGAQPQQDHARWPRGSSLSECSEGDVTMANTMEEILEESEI

EC50 (pM), cAMP luciferase reporter in GLP1R cAMP/luc cells (GLP-1 receptor)	vs. GLP-1 relative activity (%) (GLP-1 receptor)	EC50 (nM), cAMP-gated CNG channel membrane potential dye fluorescence (Ft/F0) in Human GLP2R ACTOne cells [1]	vs. GLP-2 relative activity (%) [1]	Substance
26 pM	100%	–	–	native GLP-1 peptide (from UniProt P01275 98-127)
–	–	0.58 nM	100%	native GLP-2 peptide (from UniProt P01275 146-178)
